Test results taken from patent publication US20250304655A1.

Biological target: human hemoglobin (HbA) (human) (UniProt P69905)
Assay: cell-based or functional assay

human hemoglobin (HbA) (human), sequence (P69905 2-142 limits assumed, chain 1 of 2): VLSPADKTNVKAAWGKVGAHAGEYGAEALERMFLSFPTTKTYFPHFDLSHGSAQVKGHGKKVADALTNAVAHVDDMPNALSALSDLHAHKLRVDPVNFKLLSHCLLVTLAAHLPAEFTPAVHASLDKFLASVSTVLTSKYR
human hemoglobin (HbA) (human), sequence (P68871 2-147 limits assumed, chain 2 of 2, further chain): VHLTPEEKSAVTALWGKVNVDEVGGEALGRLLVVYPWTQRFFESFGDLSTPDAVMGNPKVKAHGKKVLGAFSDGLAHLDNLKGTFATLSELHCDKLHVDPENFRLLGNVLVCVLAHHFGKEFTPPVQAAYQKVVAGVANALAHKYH

median relative relaxation: 83%
Substance: recHp1-1
